Laboratory results as given in patent publication US20220168434A1, “APPLICATION OF TRANSTHYRETIN IN ENTERING EYE AND PREPARING DROP” (YIZHOU (SHANGHAI) BIOLOGICAL MEDICINE CO, LTD., priority 2019, published 2022).

Assays:
[1] = Protein content in vitreous body during two weeks of eye dropping (ELISA, anti-His tag antibody); assay type: in vivo, SD rats (Rattus norregicus); details: SD rats; protein not fused with TTR
Procedure: (§1) The purified TTR protein (at a concentration of 4 μmol/L) prepared in Example 1 after removal of endotoxin and bacteria was subject to treating healthy SD rats (Rattus norregicus) (6 weeks old) and New Zealand big-eared rabbits (Oryctolagus cuniculus) (2 months old, about 2.5 kg) by means of eye dropping, the left eye was the sample eye dropped with the protein, and the right eye was the blank control eye dropped with saline. The protein was administered 1-3 times per day at a dosage of 0.4-0.8 nmol. Two weeks later, the eyeball was removed and separated to obtain the vitreous body sample. It was preliminarily verified by western-blot method (FIG. 7A) that TTR can enter the vitreous cavity from the ocular surface.
(§2) The purified TTR-GFP protein (at a concentration of 4 μmol/L) prepared in Example 2 after removal of endotoxin and bacteria was subject to treating healthy SD rats (Rattus norregicus) (6 weeks old) and New Zealand big-eared rabbits (Oryctolagus cuniculus) (2 months old, about 2.5 kg) by means of eye dropping, the left eye was the sample eye dropped with the protein, and the right eye was the blank control eye dropped with saline. The protein was administered 1-3 times per day at a dosage of 0.4-0.8 nmol. […] The content of TTR-GFP in the vitreous body sample was determined by ELISA with the anti-His tag antibody as the primary antibody (Table 10 and 11). […]

[2] = as above; assay type: in vivo, New Zealand big-eared rabbits (Oryctolagus cuniculus); details: New Zealand big-ear rabbits; protein not fused with TTR
Procedure: as §1, §2

B1: Ovalbumin: Ovalbumin protein (UniProt Accession No.: P01012) not fused with TTR (protein, UniProt P01012 2-386, looked up)
Ovalbumin: GSIGAASMEFCFDVFKELKVHHANENIFYCPIAIMSALAMVYLGAKDSTRTQINKVVRFDKLPGFGDSIEAQCGTSVNVHSSLRDILNQITKPNDVYSFSLASRLYAEERYPILPEYLQCVKELYRGGLEPINFQTAADQARELINSWVESQTNGIIRNVLQPSSVDSQTAMVLVNAIVFKGLWEKAFKDEDTQAMPFRVTEQESKPVQMMYQIGLFRVASMASEKMKILELPFASGTMSMLVLLPDEVSGLEQLESIINFEKLTEWTSSNVMEERKIKVYLPRMKMEEKYNLTSVLMAMGITDVFSSSANLSGISSAESLKISQAVHAAHAEINEAGREVVGSAEAGVDAASVSEEFRADHPFLFCIKHIATNAVLFFGRCVSP
With B1 the “entering the vitreous body after eye dropping (in words)” value [1] was “did not enter” and the “entering the vitreous body after eye dropping (in words)” value [2] was “did not enter”.
